{"source": "patent US20230285509A1", "about": "“INTERFERON-BASED DISEASE TREATMENT METHOD” (XIAMEN AMOYTOP BIOTECH CO., LTD., priority 2019, published 2023)", "molecules": {"B1": {"name": "deglycosylated mIFN-α4: recombinant mouse interferon α4 expressed in Pichia pastoris, glycosyl groups removed with glycosidase (protein, UniProt P07351 25-186, looked up)", "Interferon alpha-4": "CDLPHTYNLGNKRALTVLEEMRRLPPLSCLKDRKDFGFPLEKVDNQQIQKAQAILVLRDLTQQILNLFTSKDLSATWNATLLDSFCNDLHQQLNDLKACVMQEPPLTQEDSLLAVRTYFHRITVYLRKKKHSLCAWEVIRAEVWRALSSSTNLLARLSEEKE", "modifications": "deglycosylated", "notes": "recombinant mouse interferon α4 expressed in Pichia pastoris, glycosyl groups removed with glycosidase"}, "B2": {"name": "PEG-mIFN-α4: PEGylated recombinant mouse interferon α4: deglycosylated mIFN-α4 modified with 40 kD Y-type polyethylene glycol succinimide ester (YPEG-NHS) (protein, UniProt P07351 25-186, looked up)", "Interferon alpha-4": "B1 Interferon alpha-4", "modifications": "40 kD Y-type PEG, deglycosylated"}}, "key": {"lung cancer LLC": {"system": "lung cancer LLC", "assay": "Lung cancer LLC in mice, tumor volume (Example 8)", "format": "in vivo, C57BL/6N mice", "conditions": "24 days after tumor inoculation; once a week; PEG-mIFN-α4 1.0 μg/w sc, gemcitabine 60 mg/kg/w ip", "description": "(§1) The anticancer agent was gemcitabine (Jiangsu Hansoh Pharmaceutical Group Co., Ltd). […] Statistical tests were all two-sided tests."}, "[1]": {"system": "transplanted liver cancer H22", "assay": "Transplanted liver cancer H22 in mice, survival, gemcitabine combination (Example 11)", "format": "in vivo, BALB/c mice", "conditions": "gemcitabine 60 mg/kg ip once a week", "method": "After being divided into groups, the corresponding drugs or saline were administered. […] With respect to the intermittent administration, it was administered once every 48 hours, for three times continuously, before discontinuation of 144 hours. Gemcitabine was administered by intraperitoneal injection at a dose of 60 mg per kilogram of body weight each time, once a week. The normal saline control group was given an equal volume of normal saline. The PEG-mIFN-α4 intermittent administration combined with gemcitabine group was given gemcitabine during the first injection of PEG-mIFN-α4, and then administered with gemcitabine once a week thereafter. All groups were subjected to survival analysis to compare differences between groups."}, "melanoma B16": {"system": "melanoma B16", "assay": "Melanoma B16 in mice, tumor volume (Example 10)", "format": "in vivo, C57BL/6N mice", "conditions": "14 days after tumor inoculation; once a week; PEG-mIFN-α4 1.0 μg/w sc, gemcitabine 60 mg/kg/w ip", "description": "as §1"}, "colorectal cancer CT26": {"system": "colorectal cancer CT26", "assay": "Colorectal cancer CT26 in mice, tumor volume (Example 9)", "format": "in vivo, BALB/c mice", "conditions": "day 43; once a week; PEG-mIFN-α4 1.0 μg/w sc, gemcitabine 60 mg/kg/w ip", "description": "as §1"}, "liver cancer H22": {"system": "liver cancer H22", "assay": "Liver cancer H22 in mice, tumor volume (Example 7)", "format": "in vivo, BALB/c mice", "conditions": "18 days after tumor inoculation; once a week; PEG-mIFN-α4 1.0 μg/w sc, gemcitabine 60 mg/kg/w ip", "method": "The average tumor volume for each individual group was calculated based on the formula V=1/2ab^2 (a and b represent length and width (mm) respectively) by measuring the tumor diameter, and the anti-tumor effect was observed dynamically.\nStatistical tests were all two-sided tests."}, "[2]": {"system": "mouse fibroblast/encephalomyocarditis virus (L929/EMCV)", "assay": "Mouse fibroblast/encephalomyocarditis virus (L929/EMCV) cytopathic inhibition method", "format": "cell-based", "conditions": "commercial mIFN-α4 (R&D) as the standard", "method": "(§2) The bacterial endotoxin content of the deglycosylated mIFN-α4 stock solution was determined by the Limulus reagent method as lower than 60 EU/mg. specific activity was determined as 5.4×10^8 U/mg by using the commercial mIFN-α4 (R&D, catalog number 12115-1) as the standard, and by using the mouse fibroblast/encephalomyocarditis virus (L929/EMCV) cytopathic inhibition method.\nas §2, with “PEG-mIFN-α4” for “deglycosylated mIFN-α4”, “15” for “60”, “Specific” for “specific”, “6.1×10^6” for “5.4×10^8”"}, "[3]": {"system": "transplanted liver cancer H22", "assay": "Continuous vs intermittent administration, transplanted liver cancer H22 in mice, survival (Example 6)", "format": "in vivo, BALB/c mice"}, "[4]": {"design": "species or system BALB/c mice", "conditions": "mouse, in vivo, sc", "procedure": "In this example, BALB/c mice were purchased from Beijing Vital River Laboratory Animal Technology Co., Ltd. The blood concentration of PEG-mIFN-α4 was detected by double-antibody sandwich ELISA.\n6-8 weeks old, SPF grade BALB/c mice (N=60, with fifty-fifty of male and female mice) were injected with a single injection of 1 μg/mouse PEG-mIFN-α4 subcutaneously on the back of the neck. Plasma samples were collected before the injection (0 h) and after the injection at 15 h, 24 h, 36 h, 48 h, 72 h, 96 h, 120 h, 168 h, 216 h, 264 h, 312 h, to determine the blood concentration. Phoenix WinNonlin 6.4 software was used to calculate the pharmacokinetic parameters."}}, "note": "Several values for one entry are separate records, joined by “and”; a condition that tells them apart may be missing. Equal values may be shown once."}
{"molecule": "Nc1ccn([C@@H]2O[C@H](CO)[C@@H](O)C2(F)F)c(=O)n1", "note": "[Gemcitabine, reference compound]", "values": [{"measurement": "Mean tumor volume (Standard deviation)", "setting": "lung cancer LLC", "value": "1466.6 (791.5) mm^3"}, {"measurement": "mortality rate", "setting": "[1]; by day 41, PEG-mIFN-α4 1 microgram per mouse intermittent", "value": 73.1, "unit": "%"}, {"measurement": "Median survival period (Time after tumor inoculation, days)", "setting": "[1]", "value": 21.5, "unit": "days"}, {"measurement": "Mean tumor volume (Standard deviation)", "setting": "melanoma B16", "value": "2279.9 (807.6) mm^3"}, {"measurement": "Mean tumor volume (Standard deviation)", "setting": "colorectal cancer CT26", "value": "1558.2 (2225.2) mm^3"}, {"measurement": "Mean tumor volume (Standard deviation)", "setting": "liver cancer H22", "value": "1619.3 (911.2) mm^3"}]}
{"molecule": "B1", "values": [{"measurement": "Specific activity", "setting": "[2]", "value": "5.4×10^8 U/mg"}]}
{"molecule": "B2", "values": [{"measurement": "Mean tumor volume (Standard deviation)", "setting": "lung cancer LLC", "value": "4000.8 (2513.7) mm^3"}, {"measurement": "Mean tumor volume (Standard deviation)", "setting": "melanoma B16", "value": "1639.7 (979.5) mm^3"}, {"measurement": "Median survival period (Time after tumor inoculation, days)", "setting": "[3]; continuous administration: 1 microgram per animal sc once every 48 hours, 21 times", "value": "38 days and 38.0 days"}, {"measurement": "Survival rate during the observation period", "setting": "[3]; intermittent administration: 1 microgram per animal sc once every 48 hours for 3 times, suspended 144 hours, 4 rounds, Day 40 after tumor inoculation", "value": "93.3% and 93.3%."}, {"measurement": "Mean tumor volume (Standard deviation)", "setting": "colorectal cancer CT26", "value": "5283.7 (5030.5) mm^3"}, {"measurement": "Mean tumor volume (Standard deviation)", "setting": "liver cancer H22", "value": "846.2 (592.0) mm^3"}, {"measurement": "Cl_F—obs", "setting": "[4]", "value": 0.07, "unit": "mL/h"}, {"measurement": "T1/2 (elimination half-life)", "setting": "[4]", "value": 28.3, "unit": "h"}, {"measurement": "Tmax (plasma concentration peak time)", "setting": "[4]", "value": 24, "unit": "h"}, {"measurement": "Vz_F—obs", "setting": "[4]", "value": 2.91, "unit": "mL"}, {"measurement": "Specific activity", "setting": "[2]", "value": "6.1×10^6 U/mg"}]}
